Molecular target: T1, labeled ACE2 (angiotensin-converting enzyme 2) (human, UniProt Q9BYF1 18-740)
T1 construct: also called ACE2 detection reagent
Assay: labeled ACE2 on immobilized Mixed Panel, ECL

T1 sequence (Q9BYF1 18-740 limits assumed): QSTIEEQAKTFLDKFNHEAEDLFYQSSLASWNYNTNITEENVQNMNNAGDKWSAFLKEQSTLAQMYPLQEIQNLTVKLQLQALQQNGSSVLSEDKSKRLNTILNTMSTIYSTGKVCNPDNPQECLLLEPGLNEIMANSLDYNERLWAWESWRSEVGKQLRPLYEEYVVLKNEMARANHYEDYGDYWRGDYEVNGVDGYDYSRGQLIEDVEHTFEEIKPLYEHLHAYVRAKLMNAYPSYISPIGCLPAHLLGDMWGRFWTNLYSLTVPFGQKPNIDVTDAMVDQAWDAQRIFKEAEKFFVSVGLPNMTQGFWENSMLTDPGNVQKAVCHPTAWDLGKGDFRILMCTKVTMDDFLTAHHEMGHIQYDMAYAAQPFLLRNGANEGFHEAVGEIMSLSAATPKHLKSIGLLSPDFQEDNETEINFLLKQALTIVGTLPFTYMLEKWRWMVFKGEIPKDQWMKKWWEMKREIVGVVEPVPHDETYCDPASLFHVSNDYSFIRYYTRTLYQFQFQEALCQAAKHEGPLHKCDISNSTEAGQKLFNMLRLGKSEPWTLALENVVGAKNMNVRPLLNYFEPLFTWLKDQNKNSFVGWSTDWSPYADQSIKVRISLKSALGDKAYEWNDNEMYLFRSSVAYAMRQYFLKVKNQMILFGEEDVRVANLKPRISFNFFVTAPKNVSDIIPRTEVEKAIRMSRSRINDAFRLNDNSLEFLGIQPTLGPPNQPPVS

B1: HCoV-OC43 S protein (other)
chain: AVIGDLKCTSDNINDKDTGPPPISTDTVDVTNGLGTYYVLDRVYLNTTLFLNGYYPTSGSTYRNMALKGSVLLSRLWFKPPFLSDFINGIFAKVKNTKVIKDRVMYSEFPAITIGSTFVNTSYSVVVQPRTINSTQDGDNKLQGLLEVSVCQYNMCEYPQTICHPNLGNHRKELWHLDTGVVSCLYKRNFTYDVNADYLYFHFYQEGGTFYAYFTDTGVVTKFLFNVYLGMALSHYYVMPLTCNSKLTLEYWVTPLTSRQYLLAFNQDGIIFNAEDCMSDFMSEIKCKTQSIAPPTGVYELNGYTVQPIADVYRRKPNLPNCNIEAWLNDKSVPSPLNWERKTFSNCNFNMSSLMSFIQADSFTCNNIDAAKIYGMCFSSITIDKFAIPNGRKVDLQLGNLGYLQSFNYRIDTTATSCQLYYNLPAANVSVSRFNPSTWNKRFGFIEDSVFKPRPAGVLTNHDVVYAQHCFKAPKNFCPCKLNGSCVGSGPGKNNGIGTCPAGTNYLTCDNLCTPDPITFTGTYKCPQTKSLVGIGEHCSGLAVKSDYCGGNSCTCRPQAFLGWSADSCLQGDKCNIFANFILHDVNSGLTCSTDLQKANTDIILGVCVNYDLYGILGQGIFVEVNATYYNSWQNLLYDSNGNLYGFRDYIINRTFMIRSCYSGRVSAAFHANSSEPALLFRNIKCNYVFNNSLTRQLQPINYFDSYLGCVVNAYNSTAISVQTCDLTVGSGYCVDYSKNRRSRGAITTGYRFTNFEPFTVNSVNDSLEPVGGLYEIQIPSEFTIGNMVEFIQTSSPKVTIDCAAFVCGDYAACKSQLVEYGSFCDNINAILTEVNELLDTTQLQVANSLMNGVTLSTKLKDGVNFNVDDINFSPVLGCLGSECSKASSRSAIEDLLFDKVKLSDVGFVEAYNNCTGGAEIRDLICVQSYKGIKVLPPLLSENQISGYTLAATSASLFPPWTAAAGVPFYLNVQYRINGLGVTMDVLSQNQKLIANAFNNALYAIQEGFDATNSALVKIQAVVNANAEALNNLLQQLSNRFGAISASLQEILSRLDALEAEAQIDRLINGRLTALNAYVSQQLSDSTLVKFSAAQAMEKVNECVKSQSSRINFCGNGNHIISLVQNAPYGLYFIHFSYVPTKYVTARVSPGLCIAGDRGIAPKSGYFVNVNNTWMYTGSGYYYPEPITENNVVVMSTCAVNYTKAPYVMLNTSIPNLPDFKEELDQWFKNQTSVAPDLSLDYINVTFLDLQVEMNRLQEAIKVLNQSYINLKDIGTYE
notes: also called HCoV-OC43 spike protein
B1: no binding.
